{
  "source": "patent US11136633",
  "key": {"[1]": {"target": "T1, PSMA (on PSMA-expressing LNCaP-C4.2 cells) (human, UniProt Q04609 1-750)", "T1 sequence (Q04609 whole entry)": "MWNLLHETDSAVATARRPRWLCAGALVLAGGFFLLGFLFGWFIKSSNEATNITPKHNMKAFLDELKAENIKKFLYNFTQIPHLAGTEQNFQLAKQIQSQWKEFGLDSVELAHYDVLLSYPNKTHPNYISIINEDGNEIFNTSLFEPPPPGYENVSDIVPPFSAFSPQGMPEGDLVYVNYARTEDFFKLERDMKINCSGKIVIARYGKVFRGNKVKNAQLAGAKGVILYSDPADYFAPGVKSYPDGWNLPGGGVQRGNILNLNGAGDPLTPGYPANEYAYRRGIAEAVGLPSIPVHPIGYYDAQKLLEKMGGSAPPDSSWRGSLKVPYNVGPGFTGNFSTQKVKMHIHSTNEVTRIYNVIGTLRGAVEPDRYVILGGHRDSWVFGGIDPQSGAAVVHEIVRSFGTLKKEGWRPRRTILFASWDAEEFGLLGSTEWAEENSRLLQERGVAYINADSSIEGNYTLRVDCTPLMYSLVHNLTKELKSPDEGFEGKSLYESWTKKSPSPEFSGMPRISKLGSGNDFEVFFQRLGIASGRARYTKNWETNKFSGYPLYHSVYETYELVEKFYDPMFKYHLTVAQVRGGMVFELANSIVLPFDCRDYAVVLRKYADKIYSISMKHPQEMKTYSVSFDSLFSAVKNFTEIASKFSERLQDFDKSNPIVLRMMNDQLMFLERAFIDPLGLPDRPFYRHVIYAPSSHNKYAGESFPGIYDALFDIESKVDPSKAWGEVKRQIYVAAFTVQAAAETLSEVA", "test": "cell-based or functional assay"}, "[2]": {"target": "T1, PSMA (on PSMA-expressing LNCaP-C4.2 …)", "test": "cell-based or functional assay", "remark": "listed apart in the source"}, "[3]": {"target": "T2, 5T4 (on 5T4-expressing MDA-MB-468 cells) (human, UniProt Q13641 32-420)", "T2 sequence (looked up)": "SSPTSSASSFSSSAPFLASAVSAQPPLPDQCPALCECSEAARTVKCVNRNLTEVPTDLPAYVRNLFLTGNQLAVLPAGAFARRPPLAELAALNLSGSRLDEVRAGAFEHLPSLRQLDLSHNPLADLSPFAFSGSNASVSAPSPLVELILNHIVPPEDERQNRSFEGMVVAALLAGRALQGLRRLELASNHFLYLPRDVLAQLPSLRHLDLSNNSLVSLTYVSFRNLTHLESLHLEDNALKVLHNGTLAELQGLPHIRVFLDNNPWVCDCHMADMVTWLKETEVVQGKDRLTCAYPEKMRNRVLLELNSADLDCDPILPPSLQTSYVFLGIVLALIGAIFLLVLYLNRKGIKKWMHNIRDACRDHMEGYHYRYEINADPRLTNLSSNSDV", "test": "cell-based or functional assay"}, "[4]": {"target": "T2, 5T4 (on 5T4-expressing MDA-MB-468 cells)", "test": "cellular binding on 5T4-expressing MDA-MB-468 cells"}},
  "note": "Like-named read-outs stand apart in the source and are kept apart here.",
  "data": [
    {"binder": "ADC-HC41 (SYD1091), engineered cysteine anti-PSMA (VH S41C) antibody conjugated to vc-seco-DUBA (antibody, human IgG1, kappa, V domains shown, vc-seco-DUBA linker drug on engineered Cys 41 (Kabat numbering); average DAR 1.7) VH: EVQLVQSGAEVKKPGASVKISCKTSGYTFTEYTIHWVKQACGKGLEWIGNINPNNGGTTYNQKFEDRATLTVDKSTSTAYMELSSLRSEDTAVYYCAAGWNFDYWGQGTTVTVSS VL: DIVMTQSPSSLSASVGDRVTITCKASQDVGTAVDWYQQKPGKAPKLLIYWASTRHTGVPDRFTGSGSGTDFTLTISSLQPEDFADYFCQQYNSYPLTFGGGTKLEIKR", "values": [
      {"measurement": "IC50, in vitro cytotoxicity on PSMA-positive cell line LNCaP-C4.2", "setting": "[1]", "result": 0.25, "unit": "nM"}
    ]},
    {"binder": "ADC-HC41 (vc-MMAE), anti-PSMA antibody (HC S41C) conjugated to vc-MMAE (antibody, human IgG1, kappa, V domains shown, vc-MMAE linker drug on engineered Cys 41 (Kabat numbering); average DAR 1.8) VH: EVQLVQSGAEVKKPGASVKISCKTSGYTFTEYTIHWVKQACGKGLEWIGNINPNNGGTTYNQKFEDRATLTVDKSTSTAYMELSSLRSEDTAVYYCAAGWNFDYWGQGTTVTVSS VL: DIVMTQSPSSLSASVGDRVTITCKASQDVGTAVDWYQQKPGKAPKLLIYWASTRHTGVPDRFTGSGSGTDFTLTISSLQPEDFADYFCQQYNSYPLTFGGGTKLEIKR", "values": [
      {"measurement": "IC50, in vitro cytotoxicity on PSMA-positive cell line LNCaP-C4.2", "setting": "[2]", "result": 0.39, "unit": "nM"}
    ]},
    {"binder": "H8-HC40, engineered cysteine anti-5T4 (HC S40C) H8 antibody conjugated to vc-seco-DUBA (antibody, human IgG1, kappa, V domains shown, vc-seco-DUBA linker drug on engineered Cys 40; average DAR 1.7) VH: QVQLVQSGAEVKKPGASVKVSCKASGYSFTGYYMHWVKQCPGQGLEWIGRINPNNGVTLYNQKFKDRVTMTRDTSISTAYMELSRLRSDDTAVYYCARSTMITNYVMDYWGQGTLVTVSS VL: DIVMTQSPDSLAVSLGERATINCKASQSVSNDVAWYQQKPGQSPKLLISYTSSRYAGVPDRFSGSGSGTDFTLTISSLQAEDVAVYFCQQDYNSPPTFGGGTKLEIKR", "values": [
      {"measurement": "% efficacy, in vitro cytotoxicity on MDA-MB-468 at ~100 nM", "setting": "[3]", "result": 88, "unit": "%"},
      {"measurement": "IC50, in vitro cytotoxicity on 5T4-positive cell line MDA-MB-468", "setting": "[3]", "result": 0.07, "unit": "nM"}
    ]},
    {"binder": "H8-HC41, engineered cysteine anti-5T4 (VH P41C) H8 antibody conjugated to vc-seco-DUBA (antibody, human IgG1, kappa, V domains shown, vc-seco-DUBA linker drug on engineered Cys 41; average DAR 1.7) VH: QVQLVQSGAEVKKPGASVKVSCKASGYSFTGYYMHWVKQSCGQGLEWIGRINPNNGVTLYNQKFKDRVTMTRDTSISTAYMELSRLRSDDTAVYYCARSTMITNYVMDYWGQGTLVTVSS VL: DIVMTQSPDSLAVSLGERATINCKASQSVSNDVAWYQQKPGQSPKLLISYTSSRYAGVPDRFSGSGSGTDFTLTISSLQAEDVAVYFCQQDYNSPPTFGGGTKLEIKR", "values": [
      {"measurement": "% efficacy, in vitro cytotoxicity on MDA-MB-468 at ~100 nM", "setting": "[3]", "result": 88, "unit": "%"},
      {"measurement": "IC50, in vitro cytotoxicity on 5T4-positive cell line MDA-MB-468", "setting": "[3]", "result": 0.07, "unit": "nM"}
    ]},
    {"binder": "wild-type H8 antibody (anti-5T4) (antibody, human IgG1, kappa, V domains shown, Naked antibody, human IgG1 kappa) VH: QVQLVQSGAEVKKPGASVKVSCKASGYSFTGYYMHWVKQSPGQGLEWIGRINPNNGVTLYNQKFKDRVTMTRDTSISTAYMELSRLRSDDTAVYYCARSTMITNYVMDYWGQGTLVTVSS VL: DIVMTQSPDSLAVSLGERATINCKASQSVSNDVAWYQQKPGQSPKLLISYTSSRYAGVPDRFSGSGSGTDFTLTISSLQAEDVAVYFCQQDYNSPPTFGGGTKLEIKR", "values": [
      {"measurement": "binding result", "setting": "[4]", "result": "binds"}
    ]}
  ]
}
